B1: GvpC from Anabaena flos-aquae (Ana) gas vesicles (natural protein, UniProt P09413 1-193, looked up)
chain: MISLMAKIRQEHQSIAEKVAELSLETREFLSVTTAKRQEQAEKQAQELQAFYKDLQETSQQFLSETAQARIAQAEKQAQELLAFHKELQETSQQFLSATAQARIAQAEKQAQELLAFYQEVRETSQQFLSATAQARIAQAEKQAQELLAFHKELQETSQQFLSATADARTAQAKEQKESLLKFRQDLFVSIFG
notes: Gas vesicle protein GvpC, Anabaena flos-aquae (Dolichospermum flos-aquae strain 1403/13F); five 33-residue repeats plus short N and C termini; in PDB 8GBS it is modelled only as a poly-Ala chain of one repeat's length; removed with 6 M urea to give stripped (AnaS) vesicles; also called Ana GvpC; accessory protein GvpC; source: endogenous, in native gas vesicles isolated from Anabaena flos-aquae …
B2: GvpA from Anabaena flos-aquae (Ana) gas vesicles (natural protein, UniProt P10397 1-71, looked up)
chain: MAVEKTNSSSSLAEVIDRILDKGIVIDAWVRVSLVGIELLAIEARIVIASVETYLKYAEAVGLTQSAAVPA
notes: Gas vesicle structural protein GvpA (~8 kDa), Anabaena flos-aquae (Dolichospermum flos-aquae strain 1403/13F); polymerised into the helical filament that forms the gas vesicle shell; Native protein as it stands in purified gas vesicles; also called Ana GvpA; major structural protein; source: endogenous, in gas vesicles isolated from Anabaena flos-aquae by buoyancy purification

Columns and labels:
Test in all cases: cryo-EM structure; cryo-electron tomography with subtomogram averaging of the shell of native Ana gas vesicles (7.7 Å) and of urea-stripped AnaS gas vesicles (7.3 Å), 10 mM HEPES pH 7.5; GvpA homology model (from PDB 7R1C) and a poly-Ala helix for GvpC fitted as rigid bodies
[1] = molecular target: B2; conditions: both partners purified
[2] = molecular target: the molecule itself
[3] = molecular target: B1; conditions: both partners purified

Binder: B1
- stoichiometry N [1]: ~0.05 GvpC per GvpA

Binder: B2
- binding result [2]: binds
- binding result [3]: binds

From article PMC10185304, “Structure of Anabaena flos-aquae gas vesicles revealed by cryo-ET” (Structure (London, England : 1993), 2023)
